Test results published in US20070065429A1 (Biogen, published 2007).

B1: NgR expressed in COS cells (receptor)
chain: CPGACVCYNEPKVTTSCPQQGLQAVPVGIPAASQRIFLHGNRISHVPAASFRACRNLTILWLHSNVLARIDAAAFTGLALLEQLDLSDNAQLRSVDPATFHGLGRLHTLHLDRCGLQELGPGLFRGLAALQYLYLQDNALQALPDDTFRDLGNLTHLFLHGNRISSVPERAFRGLHSLDRLLLHQNRVAHVHPHAFRDLGRLMTLYLFANNLSALPTEALAPLRALQYLRLNDNPWVCDCRARPLWAWLQKFRGSSSEVPCSLPQRLAGRDLKRLAANDLQGCAVATGPYHPIWTGRATDEEPLGLPKCCQPDAADKASVLEPGRPASAGNALKGRVPPGDSPPGNGSGPRHINDSPFGTLPGSAEPPLTAVRPEGSEPPGFPTSGPRRRPGCSRKNRTRSHCRLGQAGSGGGGTGDSEGS
B2: human NgR-1 expressed on human SKNMC cells (receptor, UniProt Q9BZR6 27-447, looked up)
chain: B1 chain
notes: whole, on cells

Columns and labels:
[1] = target: T1, AP-Aβ (UniProt P05187 23-511; P05067 672-699); experiment: AP fusion binding to COS cells expressing NgR, saturation
T1 construct: Fusion of alkaline phosphatase and Aβ(1-28); The range 1-28 is Aβ numbering; also called AP-Aβ(1-28); soluble AP-Aβ(1-28)

[2] = target: T2, Fluo-Aβ42 (UniProt P05067 672-713, 'Fluo' label (kind and position not stated)); experiment: Fluo-Aβ42 incubated 2 h at 4° C. with SKNMC cells expressing human NgR-1
T2 construct: also called fibrillogenic Aβ42 peptide

T1 sequence (P05187 other isoform, or with tags, fused parts or gaps): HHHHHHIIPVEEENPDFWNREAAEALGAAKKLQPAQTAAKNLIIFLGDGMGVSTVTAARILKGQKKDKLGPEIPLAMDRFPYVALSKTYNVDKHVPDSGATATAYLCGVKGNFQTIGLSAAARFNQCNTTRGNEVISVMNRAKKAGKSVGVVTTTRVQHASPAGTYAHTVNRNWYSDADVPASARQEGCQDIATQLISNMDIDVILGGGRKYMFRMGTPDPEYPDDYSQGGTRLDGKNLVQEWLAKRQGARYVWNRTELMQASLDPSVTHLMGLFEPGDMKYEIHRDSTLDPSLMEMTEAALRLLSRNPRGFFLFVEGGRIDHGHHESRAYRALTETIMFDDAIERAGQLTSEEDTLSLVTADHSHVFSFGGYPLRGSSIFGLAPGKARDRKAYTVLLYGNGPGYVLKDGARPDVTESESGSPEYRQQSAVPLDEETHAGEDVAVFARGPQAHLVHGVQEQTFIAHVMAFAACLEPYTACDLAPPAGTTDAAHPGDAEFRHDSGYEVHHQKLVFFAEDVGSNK

| Kd [1] [nM] | binding result [2] | Binder |
| --- | --- | --- |
| 60 | – | B1 |
| – | binds | B2 |
